According to the supplement of paper PMC10724198:
± gives the standard deviation of the averaged measurements.

Legend:
Saccharomyces cerevisiae [1] = test: protein stability index of tFT-peptide fusion (C-terminal peptide) (PSI (0-1 scale)); higher = more stable (slower turnover); conditions: genetic background: wild type; temperature: 30 C
Saccharomyces cerevisiae [2] = test: as above
Description: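 MPS profiling in S. cerevisiae of the tFT-X12 degron library: putative degron peptides plus stable controls, 12 aa, fused to the C-terminus of a sfGFP-mCherry timer. Cells are FACS-sorted into 8 mCherry/sfGFP bins and deep-sequenced. PSI runs from 0 (unstable) to 1 (stable). Backgrounds are wild type, das1Δ and doa10Δ at 30 °C, and wild type, das1Δ, cdc34-1 and cdc53-1 at 37 °C; 2-3 technical replicates each.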

[3] = genetic background: cdc34-1, temperature: 37 C
[4] = genetic background: cdc53-1, temperature: 37 C
[5] = genetic background: das1 deletion, temperature: 30 C
[6] = genetic background: das1 deletion, temperature: 37 C
[7] = genetic background: doa10 deletion, temperature: 30 C
[8] = genetic background: wild type, temperature: 30 C
[9] = genetic background: wild type, temperature: 37 C
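Also: PSI is a weighted mean of sequencing reads over stability bins, variants kept only with over 10 reads, mCherry proximal and sfGFP distal, peptide attached via GGGS linker.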

Sequence	protein stability index (Saccharomyces cerevisiae [1])	protein stability index (Saccharomyces cerevisiae [2]; [3])	protein stability index (Saccharomyces cerevisiae [2]; [4])	protein stability index (Saccharomyces cerevisiae [2]; [5])	protein stability index (Saccharomyces cerevisiae [2]; [6])	protein stability index (Saccharomyces cerevisiae [2]; [7])	protein stability index (Saccharomyces cerevisiae [2]; [8])	protein stability index (Saccharomyces cerevisiae [2]; [9])
FVSFFRWLLVSI	0.152 ± 0.028	0.267 ± 0.016	0.201 ± 0.04	0.358 ± 0.039	0.4432 ± 0.0011	0.211 ± 0.017	0.163 ± 0.015	0.218 ± 0.0089
FYAAILCLLFSC	0.341 ± 0.012	0.478 ± 0.037	0.512 ± 0.014	0.45 ± 0.035	0.546 ± 0.013	0.22913 ± 0.00013	0.265 ± 0.021	0.385 ± 0.0066
GCDVWCLVLRMG	0.47 ± 0.018	0.651 ± 0.016	0.68429 ± 0.00024	0.517 ± 0.0083	0.676 ± 0.031	0.418 ± 0.013	0.435 ± 0.019	0.63 ± 0.025
GCFVDRVYVVVV	0.4763 ± 0.00091	0.52605 ± 0.00036	0.543 ± 0.043	0.381 ± 0.026	0.546 ± 0.016	0.366 ± 0.014	0.387 ± 0.022	0.522 ± 0.0064
GCLFASWPLAVC	0.303 ± 0.043	0.104 ± 0.026	0.109 ± 0.0041	0.214 ± 0.022	0.2564 ± 0.0019	0.166 ± 0.008	0.198 ± 0.016	0.209 ± 0.0077
GCSVSLCCVFVV	0.372 ± 0.022	0.489 ± 0.016	0.503 ± 0.021	0.36 ± 0.028	0.525 ± 0.01	0.2589 ± 0.0012	0.282 ± 0.025	0.433 ± 0.0093
GCVGLSFCVWVG	0.314 ± 0.023	0.382 ± 0.011	0.502 ± 0.02	0.323 ± 0.031	0.523 ± 0.026	0.175 ± 0.015	0.211 ± 0.018	0.3965 ± 0.0014
GDSVRVIIFCLN	0.304 ± 0.081	0.465 ± 0.041	0.707 ± 0.086	0.339 ± 0.054	0.686 ± 0.068	0.119 ± 0.02	0.136 ± 0.027	0.1273 ± 0.00068
GEVLWAVLLVSC	0.299 ± 0.0047	0.1782 ± 0.00065	0.208 ± 0.016	0.215 ± 0.029	0.343 ± 0.0077	0.164 ± 0.023	0.198 ± 0.038	0.3 ± 0.0077
GFFCFLYFVVMF	0.226 ± 0.021	0.148 ± 0.0033	0.1695 ± 0.0013	0.18 ± 0.026	0.296 ± 0.013	0.2127 ± 0.0014	0.187 ± 0.018	0.277 ± 0.0028
GFIRVRHLRSLC	0.234 ± 0.026	0.55 ± 0.0029	0.658 ± 0.024	0.645 ± 0.019	0.7128 ± 0.0023	0.121 ± 0.019	0.138 ± 0.015	0.194 ± 0.026
GFSFFFIFWFFF	0.348 ± 0.022	0.394 ± 0.014	0.422 ± 0.011	0.35 ± 0.018	0.503 ± 0.034	0.378 ± 0.034	0.339 ± 0.027	0.436 ± 0.033
GFVCFIHLFLCF	0.407 ± 0.04	0.3496 ± 0.0027	0.365 ± 0.011	0.334 ± 0.027	0.425 ± 0.027	0.471 ± 0.045	0.316 ± 0.0089	0.367 ± 0.0056
GFVVYLLLSYLF	0.333 ± 0.091	0.34 ± 0.016	0.413 ± 0.035	0.279 ± 0.039	0.482 ± 0.016	0.256 ± 0.0032	0.28 ± 0.019	0.437 ± 0.024
GGFHWCPSASRG	0.711 ± 0.017	0.712 ± 0.01	0.755 ± 0.016	0.647 ± 0.031	0.7536 ± 0.0026	0.678 ± 0.02	0.6726 ± 0.0059	0.749 ± 0.014
GGGGLRVVVWLV	0.211 ± 0.049	0.534 ± 0.032	0.647 ± 0.022	0.501 ± 0.021	0.6625 ± 0.0052	0.111 ± 0.011	0.124 ± 0.018	0.15 ± 0.01
GGRLGRAGGGGR	0.639 ± 0.22	0.633 ± 0.026	0.7243 ± 0.0029	0.642 ± 0.024	0.7168 ± 0.00089	0.66 ± 0.026	0.6472 ± 0.0025	0.68996 ± 0.00034
GGVVLVVVFCCV	0.42 ± 0.13	0.165 ± 0.0053	0.34 ± 0.02	0.217 ± 0.025	0.352 ± 0.01	0.18 ± 0.015	0.204 ± 0.029	0.3395 ± 0.00053
GHFILFWVFCFM	0.369 ± 0.024	0.316 ± 0.058	0.39 ± 0.014	0.31 ± 0.046	0.453 ± 0.031	0.254 ± 0.0053	0.303 ± 0.023	0.409 ± 0.024
